Results on 3 molecules are retold here after patent US10017787B2, “Production of alkenes from 3-hydroxycarboxylic acids via 3-hydroxycarboxyl-nucleotidylic acids” (Global Bioenergies, priority 2013, dated 2018).

The subject of data set [1] is (R,S)-3-hydroxybutyrate. Briefly: Adenylation of 3-hydroxybutyrate with ATP or ADP as co-substrates, spectrophotometric assay. The format is biochemical. The note with it: 5 mM (R,S)-3-hydroxybutyrate, 0-3.2 mM ATP or ADP, 0.1 mg/ml enzyme (FIGS. 15 and 16). On the procedure:
Spectrophotometric assay was performed according to the procedure described in Example 2. The specificity of acyl-CoA synthase from M. algicola and AMP-dependent synthetase/ligase from Burkholderia sp. with respect to co-substrates was analyzed. Standard reaction contained:
0.1 mg/ml of purified enzyme
2-amino-6-mercapto-7-methylpurine ribonucleoside (MESG), purine nucleoside phosphorylase (PNP) and inorganic pyrophosphatase were added to the reaction mix according to the procedure described in the EnzCheck® Pyrophosphatase Assay Kit. A reaction mixture without inorganic pyrophosphatase was used for assays with ADP as co-substrate. Control assays were performed in which either no enzyme was added, or no 3-hydroxybutyrate was added. Each assay was started with the addition of co-substrate (ATP or ADP). Each sample was continuously monitored for the increase of 2-amino-6-mercapto-7-methylpurine at 360 nm on a SpectraMax Plus 384 UV/Vis Microplate Reader (Molecular Devices).

Substrate in data set [2]: C=CC(O)CC(=O)O
Briefly: Kinetic parameters of adenylation of 3-hydroxycarboxylates, continuous spectrophotometric diphosphate release assay. The format is biochemical, Marinobacter aquaeolei. The conditions noted are these: other: 0-10 mM 3-hydroxycarboxylate, 2 mM ATP, 0.1 mg/ml enzyme, pH 7.5. As for the experimental part: (§1) The genes coding for the adenylate-forming enzymes were synthesized and the corresponding enzymes were further produced according to the procedure described in Example 1. 3-hydroxypropionic acid (TCI) stock solution was prepared in water with the pH adjusted to 7.5 with 1 M NaOH. The release of diphosphate which is associated with 3-hydroxypropionyl-adenylate formation from 3-hydroxypropionate was quantified using the EnzCheck® Pyrophosphatase Assay Kit (E6645, Life Technologies).
(§2) In this assay, diphosphate was hydrolyzed to inorganic phosphate by inorganic pyrophosphatase and phosphate production coupled to phosphorolysis of the 2-amino-6-mercapto-7-methylpurine ribonucleoside (MESG), catalyzed by the enzyme purine nucleoside phosphorylase (PNP). The chromophoric product, 2-amino-6-mercapto-7-methylpurine, was monitored by absorbance at 360 nm (FIG. 9).
(§3) Kinetic parameters were determined by using the spectrophotometric assay described in Example 2. Reaction mixture for the assay of adenylation activity contained:
(§4) 0-10 mM 3-hydroxycarboxylate
(§5) 0.1 mg/ml of purified AMP-dependent synthetase/ligase from M. aquaeolei
(§6) 2-amino-6-mercapto-7-methylpurine ribonucleoside (MESG), purine nucleoside phosphorylase (PNP) and inorganic pyrophosphatase were added to the reaction mix according to the procedure described in the EnzCheck® Pyrophosphatase Assay Kit.

Substrate in data set [3]: O=C(O)CCO
The description is as above. Type of data set: biochemical, Marinobacter aquaeolei. The conditions noted are these: other: 0-10 mM 3-hydroxycarboxylate, 2 mM ATP, 0.1 mg/ml enzyme, pH 7.5. On the procedure:
as §1, §2, §3, §4, §5, §6

Substrate in data set [4]: CC[C@@H](O)CC(=O)O
The data set is described as above. The note with it: other: 0-10 mM 3-hydroxycarboxylate, 2 mM ATP, 0.1 mg/ml enzyme, pH 7.5. The format is biochemical, Marinobacter aquaeolei. On the procedure:
as §1, §2, §3, §4, §5, §6

The subject of data set [5] is (R,S)-3-hydroxybutyrate. Briefly: Propylene production from 3-hydroxybutyrate, M. aquaeolei enzyme and OleC proteins, GC-FID. The conditions noted are these: 50 mM (R,S)-3-hydroxybutyrate, 10 mM ATP, 2 mg/ml each enzyme, 18 hours at 37° C. Type of data set: biochemical. As for the experimental part:
The studied enzymes were produced and purified according to the procedure described in Example 1. The studied reaction was carried out under the following conditions
2 mg/ml purified AMP-dependent synthetase/ligase from M. aquaeolei
2 mg/ml purified OleC protein from Shewanella amazonensis or from Chloroflexus aurantiacus
Reaction volume was 0.3 ml.
For the no enzymes control, buffer was used in place of enzymes.
Controls reactions without ATP were realized in parallel.
The reaction mixtures were incubated in 2 ml sealed vials (Interchim) for 18 hours at 37° C. with shaking. Propylene production was analyzed by Gas Chromatography (GC) using Bruker 450-GC gas chromatograph equipped with Flame Ionization Detector (FID). Nitrogen was used as carrier gas with a flow rate of 6 ml/min. Volatile compounds were chromatographically separated on GS-Alumina column (30 m×0.53 mm ID) (Agilent) using an isothermal mode at 130° C. The enzymatic reaction product were identified by comparison with standard of propylene (Sigma-Aldrich), the retention time of propylene in these conditions was 1.57 min.

Substrate in data set [6]: CC(C)(O)CC(=O)O
Briefly: purified protein, by the assay type. The note with it: other: 0-10 mM 3-hydroxycarboxylate, 2 mM ATP, 0.1 mg/ml enzyme, pH 7.5.

Substrate in data set [7]: CC(O)CC(=O)O
Briefly: purified protein, by the assay type. The note with it: other: 0-10 mM 3-hydroxycarboxylate, 2 mM ATP, 0.1 mg/ml enzyme, pH 7.5.

For a further data set, the system named is 3-hydroxyisovalerate. Briefly: Isobutene production from 3-hydroxyisovalerate, M. aquaeolei enzyme and OleC proteins, GC-FID. The format is biochemical. The note with it: 50 mM 3-hydroxyisovalerate, 10 mM ATP, 0.6 mg each enzyme in 0.3 ml, 18 hours at 37° C. As for the experimental part: The studied reaction was carried out under the following conditions
Reaction volume was 0.3 ml
0.6 mg of AMP-dependent synthetase/ligase from M. aquaeolei and 0.6 mg of OleC protein were added to 0.3 ml of reaction mixture. A reaction mixture containing only 0.6 mg of AMP-dependent synthetase/ligase from M. aquaeolei was used as reference. The assays were incubated in 2 ml sealed vials (Interchim) for 18 hours at 37° C. with shaking. Isobutene production was analyzed by Gas Chromatography (GC) using Bruker 450-GC gas chromatograph equipped with Flame Ionization Detector (FID). Nitrogen was used as carrier gas with a flow rate of 6 ml/min. Volatile compounds were chromatographically separated on GS-Alumina column (30 m×0.53 mm ID) (Agilent) using an isothermal mode at 130° C. The enzymatic reaction product were identified by comparison with standard of isobutene (Sigma-Aldrich), the retention time of isobutene in these conditions was 2.40 min.

B1: acyl-CoA synthase from M. algicola: acyl-CoA synthetase from Marinobacter algicola, SEQ ID NO: 2, Uniprot A6EZ54 (protein)
chain: MNSIFDKGLEPTDANNATLTPLDFLARTASVYPEYPAVIHGATRRNWQQTYERCRRLASALADRGVGKGDTVAAMLPNIPPMLECHFGIPMLGAVLNALNTRLDAKAIAFMLEHGEAKVLIADREFGDVINEAVGMLDNPPQVIDVNDPEFSGAGTQVSDLDYDAFVASGDPAFDWQMPADEWDAISLCYTSGTTGNPKGVVYHHRGAYENAMGNQAVWSMGMHPVYLWTLPMFHCNGWCFPWTITAFAGTHVCLRKVEPEKILQLISEHKVSHMCGAPIVLNTLLGASEAAKSSFSHTVQAMTAGAAPPAKVIEAIENMGFRVTHVYGLTEVYGPVTVCAWKSEWDDLPVEDRARIKARQGVRYHTLAGMMVGDPETMEAVPKDGNTIGEIFLRGNTVMKGYLKNPKATEEAFRGGWFHTGDLAVWHADGYAEIKDRLKDIIISGGENISTIEVEDVLYRHPDILEAAVVARPDEKWGETPCAFVTLKPEAGEVSEDDIIAFCRERMAKFKVPKTIVFSELPKTSTGKIQKFVLRDDAKKL
modifications: Marinobacter algicola DG893
As for B1, the “formation of 3-hydroxybutyryl-adenylate with ATP or ADP as co-substrate” value in the data set with (R,S)-3-hydroxybutyrate [1] was “able to catalyze the formation of 3-hydroxybutyryl-adenylate by using ATP or ADP as co-substrate”.

B2: AMP-dependent synthetase/ligase from Burkholderia sp.: AMP-dependent synthetase and ligase of Burkholderia sp., SEQ ID NO: 4, Uniprot R4WRJ4 (protein)
chain: MTHSEEIMTTPGIYDEGLPKTAANFAVMTPLTFIERAASVYPNRPAVVHGDVRRTWSETYARTRRLASALAARGIGVGDTVAVMLPNTPEMVEAHFGVPMTGAVLNALNTRLDAATLAFMLTHGEAKAVLVDREFSDVMRRALESVPQKLLVIDVDDSQYAGAGERIGEIEYEALLASGDPAYEWTPPSDEWNAICLNYTSGTTGNPKGVVYHHRGAYTNAVSNILEWDMPAHAVYLWTLPMFHCNGWCFPWTIAARAGVNVCLRRIDAKTVFDLIRNEGVTHYCGAPIVQNMLVNAPDELKAGIAQKVNAMVAGAAPPAAMIEGMERMGFQLTHVYGLTEVYGPATVCAHQAEWSELDIGERARLNARQGVRYHLQDAVTVRDPDTMQLVPPDGETIGEIMFRGNIAMKGYLKNAAATEEAFRGGWFHTGDLAVAYPDGYVRIKDRSKDIIISGGENISSIEVEDVLYRHPAVLAVAVVAKPDARWGETPCAFVELKTGVHVSGEELIAHCKQHLAGFKVPRAIEFCELPKTSTGKIQKFELRKRAGSVTAIDV
modifications: Burkholderia sp. RPE64
As to B2, in the data set on (R,S)-3-hydroxybutyrate [1], the “formation of 3-hydroxybutyryl-adenylate with ATP or ADP as co-substrate” value was “able to catalyze the formation of 3-hydroxybutyryl-adenylate by using ATP or ADP as co-substrate”.

B3: AMP-dependent synthetase/ligase from Marinobacter aquaeolei (Marinobacter nauticus VT8) (protein)
chain: MTSIFDQGLEPRDANYAVQSPIDFIERTASVYPDYPAIIHGAIRRTWAETYDRCLRLASALKGRGIGRGDTVAVMLPNIPAMVECHFGIPMIGAVLNTLNVRLDAEAIAFMLEHGEAKVVIADREFGQVIKDAVRHLEHKPLVIDVDDPEYGEGVQVSDLDYEAFLQEGDPQFQWSFPDNEWDAISLNYTSGTTGNPKGVVYHHRGAYINALGNQTVWSMDMHPVYLWTLPMFHCNGWCFPWTITAMAGTHVCLRRVDPEKILQLIHDHQVTHMCGAPIVLNALLNASPEAKAGIDHEVKSMTAGAAPPAQVIGSIEEMGIKVTHVYGLTEVYGPVTVCAWKSEWDELPLHDRAKIKARQGVRYHTLGGTMVADPNTMQPVPKDGKTIGEIFLRGNTVMKGYLKNPTATEEAFRGGWFHTGDLAVWHEDGYMEIKDRLKDIIISGGENISTIEVEDTLYRHPAVLEAAVVARPDEKWGETPCAFITLKPEAGDVSEDDIINFCREHLARFKVPKTVVFTELPKTSTGKIQKFVLRDQAKDLN
For B3, the Km turned out to be 3 mM in data set [2]; 5 mM in data set [3]; 4 mM in data set [4]; 10 mM in data set [6]; 2 mM in data set [7]. Besides, the kcat in data set [2] came to 0.023 s⁻¹; in data set [3], 0.04 s⁻¹; in data set [4] it was 0.012 s⁻¹; in data set [6] it was 0.007 s⁻¹; in data set [7], 0.03 s⁻¹. Moreover, the Propylene peak area in the data set with (R,S)-3-hydroxybutyrate [5] is recorded as 0 arbitrary units. For the same molecule, the Isobutene peak area in the data set on 3-hydroxyisovalerate amounted to 414 arbitrary units.
